Measurements published in US20120277143A1 (Janssen / Centocor, published 2012).
Blank lines part the entries; values can stand above or below the binder they belong to.

Legend:
murine IL4 [1] = target: T1, murine IL4 (mouse, UniProt P07750 21-140); assay: cell-based or functional assay
T1 sequence (looked up): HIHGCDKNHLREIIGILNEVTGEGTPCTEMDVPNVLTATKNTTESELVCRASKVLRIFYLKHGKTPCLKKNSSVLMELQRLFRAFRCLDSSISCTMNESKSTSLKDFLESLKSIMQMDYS

murine IL13 = target: T2, murine IL13 (mouse, UniProt P20109 21-131, limits assumed); assay: cell-based or functional assay
T2 sequence (looked up): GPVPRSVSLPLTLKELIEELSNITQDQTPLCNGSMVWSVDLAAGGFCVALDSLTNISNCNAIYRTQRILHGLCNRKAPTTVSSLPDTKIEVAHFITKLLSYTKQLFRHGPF

human IL4 [2] = target: T3, human IL4 (human, UniProt P05112 25-153, biotinylated in the SPR and competition assays (sites not given)); assay: binding to recombinant IL4; kinetic method not restated
T3 construct: Peprotech #200-04, mature protein produced in E. coli; also called hIL4; Interleukin 4
T3 sequence: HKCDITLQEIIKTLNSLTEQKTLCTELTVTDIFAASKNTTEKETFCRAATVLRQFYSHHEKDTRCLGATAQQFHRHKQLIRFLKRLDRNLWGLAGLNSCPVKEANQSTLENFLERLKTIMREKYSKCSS

human IL4 [3] = target: T3, human IL4; assay: cell-based or functional assay
murine IL4 [4] = target: T1, murine IL4; assay: affinity for mIL4, method and numbers not given
human IL4 [5] = target: T3, human IL4; assay: Luminex competition, 67 pM biotin-IL4 binding to IL4RA-Fc beads
Experimental: For biotinylation of IL4, recombinant human IL4 (Peprotech) was biotinylated at a 4:1 ratio using EZ-Link NHS-LC-Biotin (Pierce, #21336) for 2 hours at RT. The protein was dialyzed in PBS overnight to remove excess biotinylation reagent. Competition binding for cynomologous IL4 (SEQ ID NO: 5) was performed using the isolated protein biotinylated in the same manner.
AR protein inhibition of IL4 binding to IL4 RA was assessed using IL4 RA-Fc (R&D Systems), comprising the Gly24-His232 which represents the ECD (SEQ ID NO: 5) fused to a human IgGl-Fc and therefor a disulfide linked homodimer. The protein was conjugated to carboxylated Luminex microspheres according to the manufacturer's protocol. For neutralization experiments, 5000 IL4RA-Fc conjugated beads in 50 μl were added to each well of a 96-well filter plate (Millipore). Biotinylated human IL4 was mixed with an appropriate dilution of AR protein in Luminex Assay Buffer (PBS, 1% BSA, pH 7.4) to give a final concentration of 67 pM IL4. The plate was incubated for 1 hour at RT in the dark on a plate shaker, set to shake vigorously to avoid bead aggregation. The plate was washed twice with 150 μl of wash buffer (PBS, 0.1% BSA, pH 7.4, 0.05% Tween-20) using a vacuum manifold followed by the addition of 50 μl of Streptavidin PE at 25 μg/ml and incubated at RT for 20 minutes. The plates were washed again and 150 μl of sheath fluid was added and the plate was placed on the shaker for 5 minute. Plates were read using a Luminex® 100 system; data were plotted as a function of AR protein concentration. IC₅₀ values were determined by fitting the data to the equation for sigmoidal dose response using PRISM software (GraphPAD PRISM) (Table 6).

human IL4 [6] = target: T3, human IL4; assay: cell-based or functional assay; remark: listed apart in the source
human IL4 [7] = target: T3, human IL4; assay: SPR ProteOn, biotin-IL4 on neutravidin chip, 1:1 fit
Experimental: Purified binders selected as “hits” were ranked by their affinity on a ProteOn XPR-36 instrument (Bio-Rad). ProteOn is an optical biosensor instrument that measures protein-protein interactions in real time, based on Surface Plasmon Resonance technology similar to Biacore (GE). A rapid experimental protocol was performed as follows: On a GLC sensor chip (Bio-Rad), Neutravidin (Thermo Scientific) was covalently immobilized to a density of >5000 RU using amine coupling chemistry as described by the manufacturer. On one flow cell, biotinylated IL4 (Peprotech) was immobilized to a level of 250 RU, while another flow cell was used as reference, with neutravidin immobilized only. […] The retrieved values were used to rank the AR proteins by their affinity.

human IL4 [8] = target: T3, human IL4; assay: cell-based or functional assay; remark: listed apart in the source

IC50 (read off the curve); IL4 dependent HT2 proliferation assay, retentate sample (diamonds, solid line) (murine IL4 [1]): ~40 pM
IC50 (read off the curve); IL13 STAT6 activation assay, aerosolized sample (triangles) (murine IL13): ~2000 pM
IC50 (read off the curve); IL13 STAT6 activation assay, pre-nebulization sample (squares) (murine IL13): ~1000 pM
IC50 (read off the curve); IL13 STAT6 activation assay, retentate sample (diamonds) (murine IL13): ~1000 pM
B1: 11G11-21H2 (designed binder)
chain: MRGSHHHHHHGSDLGKKLMEAARAGQDDEVRILMANGADVNAKDLFGITPLHLAAVYGHLEIVEVLLKHGADVNATDNWGSTPLHLAAQFGHLEIVEVLLKYGADVNAQDKFGKTAFDISIDNGNEDLAEILQKLGGGGSGGGGSGGGGSGGGGSRSDLGEKLLEAARAGQDDEVRILMANGADVNAYDDDGMTPLHLAAKSGHLEIVEVLLKHGADVNAMDITGSAPLHLAADLGHLEIVEVLLKHGADVNAIDYLGATPLHLAATYGHPEIVEVLLKYGADVNAQDKFGKTAFDISIDNGNEDLAEILQKLN

Kd (human IL4 [2]): 1.8 pM
IC50 STAT6 (human IL4 [3]): 1.4 pM
B2: C06_53G6v1 (designed binder)
chain: DLGKKLLEAARAGQDDEVRILMANGADVNATDDWGDTLLHLAATDGHLEIVEVLLKAGADVNANDAIGDTPLHLAALYGHLEIVEVLLKYGADVNATDLHGFTPLHLAAFWGHLEIVEVLLKHGADVNAQDKFGKTAFDISIDNGNEDLAEILQKLN

binding result (murine IL4 [4]): binds
B3: C06-21H2 (designed binder)
chain: DLGEKLLEAARAGQDDEVRILMANGADVNAYDDDGMTPLHLAAKSGHLEIVEVLLKHGADVNAMDITGSAPLHLAADLGHLEIVEVLLKHGADVNAIDYLGATPLHLAATYGHPEIVEVLLKYGADVNAQDKFGKTAFDISIDNGNEDLAEILQKLN

Kd (human IL4 [2]): 1.6 pM
IC50 STAT6 (human IL4 [3]): 6.9 pM
B4: C06_44C12v2 (designed binder)
chain: DLGKKLLEAASAGQDDEVHILMANGADVNALDDSGYTPLHLAAEDGHLEIVEVLLKHGADVNAADRLGDTPLHLAAFVGHLEIVEVLLKAGADVNAVDLAGVTPLHVAAFYGHLEIVEVLLKAGADVNAQDKFGKTAFDISIDNGNEDLAEILQKLN

IC50 (human IL4 [5]): 10.2 pM
inhibition of STAT6 (HEK-STAT6 cells), IC50 (human IL4 [6]): 3 pM
Kd (human IL4 [7]): 50 pM
koff (human IL4 [7]): 4.61e-05 s⁻¹
kon (human IL4 [7]): 922000 M⁻¹ s⁻¹
A549 TARC Inhibition IC50 (human IL4 [8]): 174 pM
HEK Stat6 Inhibition IC50 (human IL4 [8]): 1.4 pM
Type 1 Complex inhibition IC50 (human IL4 [8]): 1.5 pM
B5: C06_28E5 (designed binder)
chain: DLGKKLLEAARAGQDDEVRILMANGADVNAADDSGITPLHLAAEDGHLEIVEVLLKYGADVNAQDNLGDTPLHLAAWTGHLEIVEVLLKNGADVNAYDISGITPLHLAAFYGHLEIVEVLLKHGADVNAQDKFGKTAFDISIDNGNEDLAEILQKLN
notes: ankyrin repeat protein; His-tagged, IMAC-purified; also called benchmark AR protein

Kd (human IL4 [2]): 8.38 pM
IC50 STAT6 (human IL4 [3]): 3.1 pM
B6: C06_28E5v1 (designed binder)
chain: DLGKKLLEAARAGQDDEVRILMANGADVNAADDSGITPLHLAAEDGHLEIVEVLLKAGADVNAQDNLGDTPLHLAAWTGHLEIVEVLLKAGADVNAYDISGITPLHLAAFYGHLEIVEVLLKHGADVNAQDKFGKTAFDISIDNGNEDLAEILQKLN
